What was measured:
(15)KDPGA(0) = experiment: microscale thermophoresis (MST); table row (15)KDPGA(0)
(15)KDPGA(5) = experiment: microscale thermophoresis (MST); table row (15)KDPGA(5)

B1: M. jannaschii Adriase S1A mutant with C-terminal His-tag, Q57968 3-293 (enzyme)
chain: ALIICYYGKNGAVIGGDRRQIFFRGSEENRKILEEKLYSGEIKSEEELYKLAEKLNIKIIIEDDREKVRKISDSVVCGEVRSLGIDAKRRRVYATKGKCAIVDILNDTVTNQTIKEGFGIVVLGNRFLKKKAEEELKRTAKLFPMMPIQQIEDAIKEIFEKLKWHPTVSKEYDIYSVNKYEKNFEEVIKKDIESLFKYREQLRKQLIDFGKVMSIVNKIVKNGEIGVIKDGKLHLYDDYIAIDKIDPNPKVFKVVDVEGNFKDGDIVVIENGDMKIKGTNEKVTTKYIIIHKGSHHHHHH
Kd ((15)KDPGA(0)): > 20 µM
Kd ((15)KDPGA(5)): > 20 µM

— patent US20260275319A1, “ARCHAEAL PEPTIDE RECOMBINASE – A NOVEL PEPTIDE LIGATING ENZYME” (MAX-PLANCK-GESELLSCHAFT ZUR FÖRDERUNG DER WISSENSCHAFTEN …, priority 2019, published 2026)
